Assay results reported in paper PMC8458385, “Molecular basis for PICS-mediated piRNA biogenesis and cell division” (Nature Communications, 2021).
Substitutions are numbered along the chain they refer to. Names and notes keep the numbering of the source.

T1: ERH-2 D67A (C. elegans, UniProt Q20057 1-113, D67A)
T1 construct: ERH-2, C. elegans; Cloned into pET28-MHL; also called D67A of ERH-2; source: E. coli BL21(DE3), purified as the wild type; not shown: His tag (from the Ni-NTA purification), N-terminal, cleaved
T1 sequence (looked up): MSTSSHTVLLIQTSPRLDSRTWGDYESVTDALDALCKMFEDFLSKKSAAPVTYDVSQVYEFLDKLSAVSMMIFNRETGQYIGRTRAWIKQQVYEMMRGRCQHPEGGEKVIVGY

T2: TOFU-6^RRM (residues 2-92) (C. elegans, UniProt Q09293 2-92)
T2 construct: TOFU-6, C. elegans, RRM domain, residues 2-92; Gene codon-optimised and synthesised; for the crystal co-expressed with PICS-1^RRM from a modified pETDuet-1; also called TOFU-6 RRM domain; TOFU-6^C; source: E. coli BL21(DE3), purified (Ni-NTA, TEV, second Ni-NTA; complex with PICS-1^RRM also Superdex 75); not shown: His tag (from the Ni-NTA purification), N-terminal, cleaved
T2 sequence (looked up): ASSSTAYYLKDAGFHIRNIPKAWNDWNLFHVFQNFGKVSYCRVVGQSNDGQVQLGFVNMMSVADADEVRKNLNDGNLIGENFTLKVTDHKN

T3: TOFU-6^RRM (L73M) (SeMet) (C. elegans, UniProt Q09293 2-92, L73M, seleno-methionine (SeMet) labeled)
T3 construct: TOFU-6, C. elegans, RRM domain, residues 2-92; also called SeMet TOFU-6^RRM(L73M); source: E. coli BL21(DE3) in M9 medium with SeMet, purified with PICS-1^RRM (I233M) (Ni-NTA, TEV, Superdex 75); not shown: His tag (from the Ni-NTA purification), N-terminal, cleaved
T3 sequence (looked up): T2 sequence (looked up) with L72M

T4: ERH-2^1-103-(Gly-Ser-Ser)7-PICS-1^180-200 (C. elegans, UniProt Q20057 1-103; O76616 180-200)
T4 construct: ERH-2, C. elegans, residues 1-103; 21-aa linker (Gly-Ser-Ser)7; PICS-1 (PID-3), C. elegans, EBM, residues 180-200; Cloned into pET28-MHL; The results on ITC say only 'ERH-2' for the fused part; the methods describe only the 1-103 fusion; also called ERH-2-(GSS)7-PICS-1; ERH-2^1-103-(GSS)7-PICS-1^180-200; source: E. coli BL21(DE3), purified (Ni-NTA, TEV, second Ni-NTA, Superdex 75); not shown: His …
T4 chain: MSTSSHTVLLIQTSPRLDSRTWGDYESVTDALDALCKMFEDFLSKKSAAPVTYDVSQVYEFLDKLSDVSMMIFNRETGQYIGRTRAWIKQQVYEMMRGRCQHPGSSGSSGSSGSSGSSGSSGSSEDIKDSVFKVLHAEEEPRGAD

T5: PICS-1^5-200 (C. elegans, UniProt O76616 5-200)
T5 construct: PICS-1 (PID-3), C. elegans, residues 5-200; Cloned into pET28-MHL; also called PICS-1^ΔRRM; PICS1^ΔRRM; source: E. coli BL21(DE3), purified (Ni-NTA, TEV, second Ni-NTA); not shown: His tag (from the Ni-NTA purification), N-terminal, cleaved
T5 sequence (looked up): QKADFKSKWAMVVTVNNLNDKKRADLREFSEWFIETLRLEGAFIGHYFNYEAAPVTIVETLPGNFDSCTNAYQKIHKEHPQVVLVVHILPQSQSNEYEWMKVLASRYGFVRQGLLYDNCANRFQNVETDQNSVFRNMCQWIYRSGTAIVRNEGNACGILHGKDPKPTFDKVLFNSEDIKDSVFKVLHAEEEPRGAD

T6: PICS-1^5-282 (C. elegans, UniProt O76616 5-282)
T6 construct: Cloned into pET28-MHL; also called almost full-length PICS-1; source: E. coli BL21(DE3), purified (Ni-NTA, TEV, second Ni-NTA); not shown: His tag (from the Ni-NTA purification), N-terminal, cleaved
T6 sequence (looked up): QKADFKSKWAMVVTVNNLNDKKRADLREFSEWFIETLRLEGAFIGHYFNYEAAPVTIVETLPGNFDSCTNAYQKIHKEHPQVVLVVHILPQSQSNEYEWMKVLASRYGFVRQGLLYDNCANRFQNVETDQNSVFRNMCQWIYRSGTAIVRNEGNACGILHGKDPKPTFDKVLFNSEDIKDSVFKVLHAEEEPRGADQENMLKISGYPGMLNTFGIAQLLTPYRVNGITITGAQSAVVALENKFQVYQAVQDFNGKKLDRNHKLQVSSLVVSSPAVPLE

B1: SUMO-fused PICS-1 ERH-2 binding motif (EBM, residues 180-200) (domain or fragment, C. elegans, UniProt O76616 180-200, looked up)
chain: EDIKDSVFKVLHAEEEPRGAD
notes: Cloned into pET28-SUMO; the Kds are for the SUMO fusion protein; also called PICS-1^EBM; PICS-1^180-200; source: E. coli BL21(DE3), purified (Ni-NTA); not shown: SUMO, N-terminal, kept
B2: PICS-1^RRM (residues 201-282) (domain or fragment, C. elegans, UniProt O76616 201-282, looked up)
chain: QENMLKISGYPGMLNTFGIAQLLTPYRVNGITITGAQSAVVALENKFQVYQAVQDFNGKKLDRNHKLQVSSLVVSSPAVPLE
notes: Homodimer in the crystal and by gel filtration; also called PICS-1(PID-3) RRM domain; PID-3; source: E. coli BL21(DE3), purified (Ni-NTA, TEV, second Ni-NTA, Superdex 75); not shown: His tag (from the Ni-NTA purification), N-terminal, cleaved
B3: PICS-1^RRM (I233M) (SeMet) (domain or fragment, C. elegans, UniProt O76616 201-282, looked up)
chain: B2 chain with I33M
modifications: seleno-methionine (SeMet) labeled
notes: also called SeMet PICS-1^RRM(I233M); source: E. coli BL21(DE3) in M9 medium with SeMet, purified with TOFU-6^RRM (L73M) (Ni-NTA, TEV, Superdex 75); not shown: His tag (from the Ni-NTA purification), N-terminal, cleaved
B4: SUMO-fused PID-1^50-70 (domain or fragment, C. elegans, UniProt Q19541 50-70, looked up)
chain: TNLHRKVTLSDRFELAALGYE
notes: PID-1, C. elegans, residues 50-70; the results say it was fused to the C-terminus of SUMO; also called PID-1 fragment; source: E. coli BL21(DE3), purified (Ni-NTA); not shown: SUMO, N-terminal, kept
B5: ERH-2 (1-103), the ERH-2 part of the crystallised fusion proteins (domain or fragment, C. elegans, UniProt Q20057 1-103, looked up)
chain: MSTSSHTVLLIQTSPRLDSRTWGDYESVTDALDALCKMFEDFLSKKSAAPVTYDVSQVYEFLDKLSDVSMMIFNRETGQYIGRTRAWIKQQVYEMMRGRCQHP
notes: ERH-2, C. elegans, residues 1-103; In the crystals it stood joined on one chain with PICS-1^180-200 (via (GSS)7) or TOST-1^34-54 (via (GSS)6); written apart for the rows of the two partners; also called ERH-2^A; ERH-2^B; source: E. coli BL21(DE3), purified as part of the fusion proteins m8 and m9
B6: ERH-2 (natural protein, C. elegans, UniProt Q20057 1-113, looked up)
chain: T1 sequence (looked up) with A67D
notes: ERH-2, C. elegans, amplified from a cDNA library; also called wild type ERH-2; source: E. coli BL21(DE3), purified (Ni-NTA, TEV, second Ni-NTA); not shown: His tag (from the Ni-NTA purification), N-terminal, cleaved

Assays:
[1] = molecular target: T1, ERH-2 D67A; assay: ITC; MicroCal ITC200, 25 °C, 20 mM Tris pH 8.5, 200 mM NaCl or 20 mM MES pH 6.5, 200 mM NaCl; 1–2 mM in the syringe into 30–50 μM in the cell; one-site binding model; conditions: both partners purified
[2] = molecular target: B6; assay: as above; conditions: both partners purified
[3] = molecular target: T2, TOFU-6^RRM (residues 2-92); assay: as above; conditions: both partners purified
[4] = molecular target: the molecule itself; assay: SEC; wild type and F217E of PICS-1^RRM on HiLoad 16/600 Superdex 75, 20 mM Tris hydrochloride pH 8.5, 200 mM NaCl
[5] = molecular target: T3, TOFU-6^RRM (L73M) (SeMet); assay: crystal structure; SeMet TOFU-6^RRM (L73M)/PICS-1^RRM (I233M) complex, 1.95 Å; 2% 1,4-dioxane, 0.1 M Tris hydrochloride pH 8.0, 15% PEG 3350, 0.01 M nickel chloride, 18 °C; conditions: both partners purified
[6] = molecular target: the molecule itself; assay: as above
[7] = molecular target: T4, ERH-2^1-103-(Gly-Ser-Ser)7-PICS-1^180-20 …; assay: ITC; MicroCal ITC200, 25 °C, 20 mM Tris pH 8.5, 200 mM NaCl or 20 mM MES pH 6.5, 200 mM NaCl; 1–2 mM in the syringe into 30–50 μM in the cell; one-site binding model; conditions: both partners purified
[8] = molecular target: the molecule itself; assay: crystal structure; fusion protein ERH-2^1-103-(GSS)7-PICS-1^180-200, 2.40 Å; 15% 2-propanol, 0.1 M sodium citrate pH 5.0, 10% PEG 10000, 18 °C
[9] = molecular target: T5, PICS-1^5-200; assay: SEC; ERH-2 and TOFU-6^RRM mixed with PICS-1 constructs, Superose 6 Increase 10/300 GL, 20 mM Tris hydrochloride pH 8.5, 200 mM NaCl; fractions on SDS-PAGE; conditions: both partners purified
[10] = molecular target: T6, PICS-1^5-282; assay: as above; conditions: both partners purified

Binder: B1
Kd [1]: 4.3 µM
Kd [2]: 8.5 µM

Binder: B2
Kd [3]: 6.2 nM
binding result [4]: binds

Binder: B3
binding result [5]: binds
binding result [6]: binds

Binder: B4
Kd [7]: 12 µM
Kd [2]: 18 µM

Binder: B5
binding result [8]: binds

Binder: B6
binding result [9]: binds
binding result [10]: binds
